Source: the supplement of paper PMC10065799, “High-throughput profiling of sequence recognition by tyrosine kinases and SH2 domains using bacterial peptide display” (eLife, 2023)

What was measured:
[1] = tested on: c-Src; assay: phosphorylation enrichment, bacterial display (enrichment ratio); higher = better substrate or ligand; peptides without Tyr show the background
[2] = biological target: Hck (UniProt P08631); assay: as above
[3] = biological target: EPHB1 (UniProt P54762); assay: as above
[4] = biological target: EPHB2 (UniProt P29323); assay: as above
[5] = tested on: c-Abl (mouse); assay: as above
[6] = biological target: Fes (UniProt P07332); assay: as above
Fes, sequence (P07332 whole entry, looked up): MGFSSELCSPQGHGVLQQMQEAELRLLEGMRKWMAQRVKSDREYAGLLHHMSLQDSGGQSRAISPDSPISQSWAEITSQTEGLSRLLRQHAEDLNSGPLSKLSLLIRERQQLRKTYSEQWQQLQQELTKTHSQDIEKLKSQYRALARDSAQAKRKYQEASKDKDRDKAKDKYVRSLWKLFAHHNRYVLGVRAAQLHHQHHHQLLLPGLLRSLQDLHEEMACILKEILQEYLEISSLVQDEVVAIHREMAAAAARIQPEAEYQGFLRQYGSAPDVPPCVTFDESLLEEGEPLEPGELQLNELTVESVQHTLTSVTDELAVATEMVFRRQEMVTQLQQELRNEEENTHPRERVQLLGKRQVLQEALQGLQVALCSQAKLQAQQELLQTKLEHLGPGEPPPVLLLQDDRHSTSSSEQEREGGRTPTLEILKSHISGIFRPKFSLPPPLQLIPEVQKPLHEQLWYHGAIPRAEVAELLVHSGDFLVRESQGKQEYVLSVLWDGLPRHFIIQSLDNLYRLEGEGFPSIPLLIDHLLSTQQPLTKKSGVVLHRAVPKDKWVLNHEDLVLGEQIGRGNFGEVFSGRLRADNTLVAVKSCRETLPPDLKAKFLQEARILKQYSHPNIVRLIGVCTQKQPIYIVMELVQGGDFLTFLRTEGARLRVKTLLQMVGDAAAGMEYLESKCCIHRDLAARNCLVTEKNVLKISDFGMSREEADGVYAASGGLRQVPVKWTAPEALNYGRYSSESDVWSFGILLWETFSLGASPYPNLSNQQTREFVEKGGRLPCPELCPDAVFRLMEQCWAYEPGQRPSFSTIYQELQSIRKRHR

[7] = biological target: FGFR1 (UniProt P11362); assay: as above
[8] = biological target: Fyn (UniProt P06241); assay: as above
Fyn, sequence (P06241 whole entry, looked up): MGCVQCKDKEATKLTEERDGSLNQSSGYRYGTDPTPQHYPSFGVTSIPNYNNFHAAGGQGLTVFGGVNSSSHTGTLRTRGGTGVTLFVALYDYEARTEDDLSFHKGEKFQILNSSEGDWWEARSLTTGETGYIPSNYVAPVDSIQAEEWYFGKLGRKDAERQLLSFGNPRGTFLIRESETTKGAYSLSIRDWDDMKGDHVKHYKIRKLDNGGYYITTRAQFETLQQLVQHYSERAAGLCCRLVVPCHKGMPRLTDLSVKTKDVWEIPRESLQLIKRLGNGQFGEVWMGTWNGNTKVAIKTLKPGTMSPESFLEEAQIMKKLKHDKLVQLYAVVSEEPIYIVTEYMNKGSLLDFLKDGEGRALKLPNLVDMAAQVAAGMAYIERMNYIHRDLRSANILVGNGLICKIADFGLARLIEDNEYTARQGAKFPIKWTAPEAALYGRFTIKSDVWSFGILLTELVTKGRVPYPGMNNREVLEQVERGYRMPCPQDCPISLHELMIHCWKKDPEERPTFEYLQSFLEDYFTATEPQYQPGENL

[9] = tested on: Fer (mouse); assay: as above
[10] = biological target: Jak2 (UniProt O60674); assay: as above
Jak2, sequence (O60674 whole entry, looked up): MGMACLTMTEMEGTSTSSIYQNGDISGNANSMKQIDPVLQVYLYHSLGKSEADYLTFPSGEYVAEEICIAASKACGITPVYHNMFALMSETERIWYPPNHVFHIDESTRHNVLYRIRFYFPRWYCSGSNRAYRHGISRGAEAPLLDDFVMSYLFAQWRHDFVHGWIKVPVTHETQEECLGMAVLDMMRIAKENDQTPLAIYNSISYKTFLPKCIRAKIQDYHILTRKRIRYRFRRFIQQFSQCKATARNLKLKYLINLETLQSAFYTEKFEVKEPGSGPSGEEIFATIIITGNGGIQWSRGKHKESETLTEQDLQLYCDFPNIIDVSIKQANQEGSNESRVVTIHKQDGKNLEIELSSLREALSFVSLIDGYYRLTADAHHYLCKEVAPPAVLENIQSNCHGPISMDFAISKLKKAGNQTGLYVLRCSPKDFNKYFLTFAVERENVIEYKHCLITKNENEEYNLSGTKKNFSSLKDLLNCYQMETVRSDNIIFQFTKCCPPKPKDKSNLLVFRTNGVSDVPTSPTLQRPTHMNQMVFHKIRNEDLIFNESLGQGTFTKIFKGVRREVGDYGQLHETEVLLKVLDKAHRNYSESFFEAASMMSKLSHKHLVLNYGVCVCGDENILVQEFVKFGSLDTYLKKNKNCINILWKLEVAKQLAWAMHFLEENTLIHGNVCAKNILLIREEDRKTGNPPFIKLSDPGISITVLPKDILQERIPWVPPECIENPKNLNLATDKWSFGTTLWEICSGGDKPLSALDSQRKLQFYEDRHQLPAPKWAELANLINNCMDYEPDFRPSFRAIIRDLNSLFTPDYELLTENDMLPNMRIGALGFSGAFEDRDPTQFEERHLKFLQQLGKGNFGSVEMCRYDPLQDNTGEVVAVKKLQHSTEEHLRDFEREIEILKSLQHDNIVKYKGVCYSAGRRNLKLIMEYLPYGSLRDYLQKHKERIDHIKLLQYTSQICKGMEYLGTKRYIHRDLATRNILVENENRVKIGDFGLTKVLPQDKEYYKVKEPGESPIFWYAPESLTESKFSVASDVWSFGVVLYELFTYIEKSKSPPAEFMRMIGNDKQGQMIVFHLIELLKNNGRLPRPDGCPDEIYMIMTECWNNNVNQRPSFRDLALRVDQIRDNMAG

[11] = tested on: AncSZ; assay: as above
[12] = biological target: MERTK (UniProt Q12866); assay: as above
MERTK, sequence (Q12866 whole entry, looked up): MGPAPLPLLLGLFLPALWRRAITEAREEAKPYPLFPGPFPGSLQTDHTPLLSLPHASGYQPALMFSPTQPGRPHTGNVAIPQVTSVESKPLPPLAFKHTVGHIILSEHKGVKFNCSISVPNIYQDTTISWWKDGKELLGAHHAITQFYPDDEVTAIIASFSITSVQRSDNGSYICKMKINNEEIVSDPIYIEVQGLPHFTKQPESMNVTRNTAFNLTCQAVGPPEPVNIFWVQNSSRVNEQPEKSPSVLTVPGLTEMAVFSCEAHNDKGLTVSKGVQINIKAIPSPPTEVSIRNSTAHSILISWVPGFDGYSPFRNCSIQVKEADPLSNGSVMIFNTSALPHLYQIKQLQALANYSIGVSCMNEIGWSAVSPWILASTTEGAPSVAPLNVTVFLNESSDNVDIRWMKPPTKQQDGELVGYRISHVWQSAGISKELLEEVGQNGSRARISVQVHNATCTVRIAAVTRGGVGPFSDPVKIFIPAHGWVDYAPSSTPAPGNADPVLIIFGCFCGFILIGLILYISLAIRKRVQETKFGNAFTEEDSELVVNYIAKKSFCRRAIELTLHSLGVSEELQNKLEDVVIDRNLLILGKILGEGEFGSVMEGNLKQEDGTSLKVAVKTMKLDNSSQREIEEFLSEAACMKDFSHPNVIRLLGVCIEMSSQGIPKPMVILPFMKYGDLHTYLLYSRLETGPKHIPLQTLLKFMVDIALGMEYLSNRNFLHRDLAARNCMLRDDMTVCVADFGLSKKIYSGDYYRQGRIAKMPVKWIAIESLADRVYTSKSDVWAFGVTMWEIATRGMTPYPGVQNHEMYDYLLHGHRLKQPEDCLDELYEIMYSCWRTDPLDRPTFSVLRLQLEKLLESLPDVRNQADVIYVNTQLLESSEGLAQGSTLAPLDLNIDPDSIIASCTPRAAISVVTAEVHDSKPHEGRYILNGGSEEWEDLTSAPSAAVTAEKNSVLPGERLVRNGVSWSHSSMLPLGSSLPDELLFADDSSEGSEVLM

[13] = biological target: FGFR3 (UniProt P22607); assay: as above
FGFR3, sequence (P22607 whole entry, looked up): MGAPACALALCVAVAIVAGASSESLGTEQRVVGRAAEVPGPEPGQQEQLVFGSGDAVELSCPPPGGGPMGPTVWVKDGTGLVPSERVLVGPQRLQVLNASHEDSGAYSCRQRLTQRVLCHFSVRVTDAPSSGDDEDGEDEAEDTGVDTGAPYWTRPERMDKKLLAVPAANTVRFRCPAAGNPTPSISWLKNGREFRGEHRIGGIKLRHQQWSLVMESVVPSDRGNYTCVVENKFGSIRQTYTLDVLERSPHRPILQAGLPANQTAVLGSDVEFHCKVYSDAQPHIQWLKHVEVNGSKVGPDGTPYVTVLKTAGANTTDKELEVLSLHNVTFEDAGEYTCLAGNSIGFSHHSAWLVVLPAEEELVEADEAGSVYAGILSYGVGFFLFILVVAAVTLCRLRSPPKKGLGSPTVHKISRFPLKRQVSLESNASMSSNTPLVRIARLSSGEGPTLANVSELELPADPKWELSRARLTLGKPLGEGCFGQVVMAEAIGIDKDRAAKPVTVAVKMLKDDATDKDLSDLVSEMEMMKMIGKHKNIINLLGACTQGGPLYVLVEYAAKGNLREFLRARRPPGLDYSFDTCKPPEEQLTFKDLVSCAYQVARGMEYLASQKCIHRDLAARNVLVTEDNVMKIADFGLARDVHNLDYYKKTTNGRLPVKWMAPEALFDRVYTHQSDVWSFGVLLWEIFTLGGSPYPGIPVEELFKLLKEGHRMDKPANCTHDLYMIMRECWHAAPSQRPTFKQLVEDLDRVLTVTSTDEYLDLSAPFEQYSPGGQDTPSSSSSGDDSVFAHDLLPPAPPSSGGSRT

[14] = biological target: Grb2 SH2 (UniProt P62993); assay: SH2 binding enrichment of the phosphorylated peptide, bacterial display (enrichment ratio); higher = better substrate or ligand; peptides without Tyr show the background
[15] = biological target: SHP2-C SH2; assay: as above
[16] = biological target: c-Src SH2; assay: as above
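Wherever SH2 binding enrichment of the phosphorylated peptide, bacterial display is given: peptide library displayed on the E. coli surface as eCPX fusions, selected cells deep-sequenced, score is each peptide's frequency after selection divided by its frequency in the input.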
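Wherever phosphorylation enrichment, bacterial display is given: 11-residue human phosphosite peptides and single-mutation variants displayed on the E. coli surface, counted by deep sequencing, each peptide's frequency after selection divided by its frequency in the unselected input library; frequency after pTyr selection over input frequency; kinase dosed for 20-30% of maximal phosphorylation in three min.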

Hck, sequence (P08631 whole entry, looked up): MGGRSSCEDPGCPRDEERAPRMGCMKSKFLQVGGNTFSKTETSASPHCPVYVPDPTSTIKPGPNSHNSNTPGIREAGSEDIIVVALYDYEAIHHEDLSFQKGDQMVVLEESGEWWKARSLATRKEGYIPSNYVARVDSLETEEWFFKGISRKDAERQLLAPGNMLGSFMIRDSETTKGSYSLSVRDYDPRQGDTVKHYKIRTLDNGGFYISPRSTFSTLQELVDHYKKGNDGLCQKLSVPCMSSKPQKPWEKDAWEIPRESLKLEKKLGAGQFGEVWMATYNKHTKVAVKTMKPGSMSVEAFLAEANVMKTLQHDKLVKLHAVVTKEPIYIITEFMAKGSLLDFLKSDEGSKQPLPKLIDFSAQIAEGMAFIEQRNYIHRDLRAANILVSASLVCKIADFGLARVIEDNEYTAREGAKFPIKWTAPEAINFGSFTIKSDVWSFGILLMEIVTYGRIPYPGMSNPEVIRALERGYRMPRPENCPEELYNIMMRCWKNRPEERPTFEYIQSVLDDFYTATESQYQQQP

Row | Sequence | SH2 binding enrichment [14] | SH2 binding enrichment [15] | SH2 binding enrichment [16] | phosphorylation enrichment [1] | phosphorylation enrichment [2] | phosphorylation enrichment [3] | phosphorylation enrichment [4] | phosphorylation enrichment [5] | phosphorylation enrichment [6] | phosphorylation enrichment [7] | phosphorylation enrichment [8] | phosphorylation enrichment [9] | phosphorylation enrichment [10] | phosphorylation enrichment [11] | phosphorylation enrichment [12] | phosphorylation enrichment [13]
1 | RGSQQYRALTV [TUBB8_Y281] | 1.04 | 0.919 | 0.535 | 0.594 | 0.866 | 0.368 | 0.518 | 0.84 | 0.633 | 0.428 | 0.325 | 0.584 | 0.77 | 0.862 | 0.516 | 0.364
2 | VDHFGYTKDDK [APOB_Y740] | 0.819 | 0.95 | 0.592 | 0.393 | 0.463 | 0.388 | 0.327 | 0.67 | 0.764 | 0.497 | 0.369 | 0.408 | 0.762 | 0.709 | 0.395 | 0.498
3 | EILDVYIFLGP [GAA_Y340_G335E] | 0.965 | 0.793 | 0.46 | 0.962 | 0.742 | 0.912 | 0.889 | 0.649 | 1.27 | 2 | 0.934 | 0.532 | 1.37 | 1.4 | 1.15 | 1.79
4 | RLEPVYFVAPA [LAMC2_Y250_D247E] | 0.798 | 0.709 | 0.625 | 6.33 | 7.76 | 7.02 | 6.76 | 9.14 | 1.02 | 9.12 | 9.5 | 0.985 | 1.7 | 2.59 | 7.77 | 8.72
5 | PDSVDYPKKGY [CTSK_Y121_R122P] | 0.841 | 0.724 | 0.601 | 0.569 | 0.614 | 0.529 | 0.951 | 0.544 | 0.654 | 0.56 | 0.759 | 0.832 | 0.707 | 0.917 | 0.537 | 0.654
6 | ILGLEYSLRVP [HELZ2_Y1304] | 0.782 | 0.938 | 0.484 | 0.947 | 0.567 | 0.49 | 0.733 | 0.753 | 1.22 | 0.573 | 0.515 | 0.48 | 1.05 | 1.03 | 0.431 | 0.637
7 | QMVGMYASSYM [AVPR2_Y124] | 0.806 | 0.946 | 1.23 | 1.45 | 1.3 | 1.21 | 1.09 | 0.921 | 1.07 | 0.611 | 1.11 | 1.07 | 0.659 | 1.27 | 2.74 | 0.783
8 | RPGSGYTNIMR [PKLR_Y564] | 1.32 | 1.43 | 2.58 | 0.707 | 0.784 | 0.345 | 0.588 | 0.723 | 0.586 | 0.439 | 0.919 | 0.429 | 0.532 | 0.64 | 0.579 | 0.415
9 | MIRSAYALRGL [CPS1_Y590_G593R] | 0.731 | 0.6 | 0.408 | 0.474 | 0.491 | 0.434 | 0.448 | 0.502 | 0.628 | 0.474 | 0.39 | 0.409 | 0.543 | 0.669 | 0.423 | 0.527
10 | NTFEKYLGEEF [TF_Y669_YF] | 0.667 | 0.656 | 0.378 | 0.429 | 0.479 | 0.587 | 0.572 | 0.641 | 1.21 | 0.509 | 0.454 | 0.491 | 0.922 | 1.08 | 0.379 | 0.75
11 | CLLHCYFSQIH [MCM3AP_Y873_R878H] | 2.04 | 1.53 | 1.38 | 0.476 | 0.476 | 0.626 | 0.453 | 0.664 | 1.29 | 0.689 | 0.43 | 0.569 | 1.26 | 0.886 | 0.431 | 0.736
12 | SYCYRYRCAPR [SUMF1_Y344_A348P] | 0.625 | 0.63 | 0.434 | 0.488 | 0.43 | 0.441 | 0.418 | 0.493 | 0.572 | 0.511 | 0.436 | 0.528 | 0.459 | 0.644 | 0.458 | 0.716
13 | DEENFYQGSME [ASCC1_Y36_D34N] | 0.891 | 0.701 | 0.556 | 0.733 | 0.7 | 0.588 | 0.604 | 0.821 | 1.36 | 0.465 | 0.498 | 0.624 | 1.05 | 1.3 | 0.517 | 0.647
14 | TDDMRYPMKSE [TGDS_Y302_N298D] | 0.827 | 0.626 | 0.439 | 0.455 | 0.42 | 0.378 | 0.527 | 0.651 | 0.863 | 0.529 | 0.43 | 0.518 | 0.694 | 0.77 | 0.488 | 0.621

Now from value to sequence, other results behind:

Row | SH2 binding enrichment [14] | SH2 binding enrichment [15] | SH2 binding enrichment [16] | Sequence | phosphorylation enrichment [1] | phosphorylation enrichment [2] | phosphorylation enrichment [3] | phosphorylation enrichment [4] | phosphorylation enrichment [5] | phosphorylation enrichment [6] | phosphorylation enrichment [7] | phosphorylation enrichment [8] | phosphorylation enrichment [9] | phosphorylation enrichment [10] | phosphorylation enrichment [11] | phosphorylation enrichment [12] | phosphorylation enrichment [13]
15 | 0.868 | 0.788 | 0.622 | GEDLSYGDLPP [IRS1_Y151_V154L] | 0.582 | 0.564 | 0.661 | 0.664 | 0.899 | 1.34 | 0.597 | 0.571 | 0.794 | 1.22 | 1.3 | 0.543 | 0.786
16 | 1.13 | 0.782 | 0.658 | PTTMTYFPHFD [HBA1_Y43_K41M] | 0.754 | 0.951 | 0.603 | 0.577 | 0.859 | 1.01 | 2.97 | 0.554 | 0.521 | 1.61 | 0.823 | 0.802 | 2.32
17 | 1.19 | 0.747 | 1.17 | RAILNYIASKY [GSTA3_Y74] | 0.81 | 0.594 | 0.665 | 0.795 | 0.92 | 1.59 | 0.652 | 0.719 | 0.748 | 0.942 | 1.44 | 0.466 | 0.89
18 | 1.01 | 0.953 | 2.06 | FNNPAYFVLEG [INPPL1_Y986_YF] | 0.875 | 0.578 | 0.621 | 0.588 | 0.816 | 1.09 | 7.65 | 0.679 | 0.501 | 4.57 | 1.25 | 3.7 | 5.18
19 | 0.852 | 4.76 | 0.786 | VEYAKYGSLQG [RET_Y809_R813Q] | 1.44 | 0.846 | 0.505 | 0.438 | 0.523 | 0.662 | 0.549 | 1.44 | 0.458 | 0.58 | 0.614 | 0.418 | 0.539
20 | 0.636 | 0.397 | 0.626 | TEALFYTDDPA [ADPRS_Y75_T79P_YF] | 0.797 | 0.76 | 1.05 | 0.894 | 1.25 | 1.82 | 0.734 | 0.645 | 0.863 | 1.65 | 1.62 | 0.699 | 1.3
21 | 0.777 | 0.438 | 0.438 | AGGTRYRYVSQ [UCN3_Y95_R91G] | 0.507 | 0.435 | 0.574 | 0.525 | 0.474 | 0.616 | 0.397 | 0.491 | 0.377 | 0.417 | 0.529 | 0.519 | 0.381
22 | 1.02 | 1.46 | 0.976 | NVGGKYSFLKV [GRM3_Y478_YF] | 0.392 | 0.446 | 0.472 | 0.378 | 0.476 | 0.739 | 0.369 | 0.306 | 0.357 | 0.663 | 0.608 | 0.456 | 0.434
23 | 0.939 | 0.833 | 0.866 | QCTSDYPEHVC [SART3_Y541] | 0.583 | 0.831 | 0.929 | 0.523 | 1.23 | 1.44 | 0.929 | 0.605 | 0.668 | 1.64 | 1.36 | 0.565 | 0.969
24 | 0.538 | 0.504 | 0.725 | LRRFIYRPPDR [OTOF_Y1231] | 0.954 | 0.854 | 0.529 | 0.656 | 0.485 | 1.18 | 0.808 | 0.678 | 0.583 | 0.809 | 0.825 | 0.824 | 0.656
25 | 0.934 | 0.83 | 0.545 | RTLTHYKSAVK [ASNS_Y555] | 0.588 | 0.5 | 0.678 | 0.411 | 0.563 | 0.813 | 0.35 | 0.35 | 0.312 | 0.801 | 0.532 | 0.702 | 0.545
26 | 0.923 | 1.41 | 5.44 | ASTHIYQIMNH [ITK_Y588_V587I] | 4.36 | 5.65 | 8.67 | 2.63 | 1.24 | 0.754 | 0.735 | 4.85 | 6.35 | 0.469 | 0.562 | 6.62 | 0.624
27 | 0.741 | 0.702 | 0.758 | RPSELYFSKIS [SMG1_Y2253_G2258S_YF] | 0.691 | 2.85 | 2 | 1.05 | 0.834 | 1.4 | 1.22 | 1.4 | 0.724 | 1.06 | 0.933 | 0.886 | 1.1
28 | 0.816 | 0.758 | 0.472 | KFEDVYVRICL [B3GALNT1_Y269_G271R] | 0.545 | 0.479 | 0.655 | 0.582 | 1.03 | 1.38 | 0.512 | 0.452 | 0.593 | 1.28 | 1.64 | 0.436 | 0.926
29 | 0.83 | 0.558 | 12.9 | ESLRPYDVMDV [KCNQ2_Y562] | 0.719 | 0.602 | 0.583 | 0.683 | 0.595 | 1.14 | 0.455 | 0.668 | 0.846 | 0.876 | 1.03 | 0.437 | 0.665
30 | 1.08 | 32.6 | 1.98 | RPPFTYATLIH [FOXP3_Y342_R347H] | 3.31 | 2.06 | 1.87 | 0.753 | 0.922 | 1.22 | 0.641 | 1.68 | 0.766 | 0.933 | 1.07 | 1.26 | 1.16
31 | 0.989 | 0.842 | 0.554 | LFSDHYSPSGR [TMPRSS12_Y23_YF] | 0.363 | 0.455 | 0.545 | 0.452 | 0.331 | 0.574 | 0.446 | 0.39 | 0.351 | 0.473 | 0.654 | 0.382 | 0.459
32 | 0.698 | 0.574 | 0.422 | SVTCTYTPALN [TP53_Y126_S127T] | 0.455 | 0.511 | 0.633 | 0.639 | 0.88 | 1.29 | 0.5 | 0.49 | 0.478 | 1.24 | 1.43 | 0.404 | 0.811
33 | 1.05 | 1.23 | 0.666 | LYYYSYLLKNH [PTEN_Y180_V175L] | 1.06 | 1.49 | 3.44 | 1.65 | 1.97 | 1.3 | 4.27 | 0.946 | 0.959 | 2.46 | 1.64 | 4.98 | 3.79
